# No end group written: not given here. *: point of attachment. 5FAM = O=C1OC2(c3ccc(O)cc3Oc3cc(O)ccc32)c2ccc(C(=O)*)cc21
# B1: pWT peptide fluorescently labeled at P5 (5-carboxyfluorescein-modified lysine in place of P5 Gly) (peptide)
# peptide: AHHGK(5FAM)WTTK
# Target: HLA-A*03:01 (recombinant soluble heavy chain with β2-microglobulin) (human)
# Test: fluorescence polarisation
binder,measurement,value
B1,t1/2 of dissociation,4.68 min

# Reference: doi:10.1101/2021.04.08.439061
